Usually Kd stands for the concentration at which binding is half-saturated.

Values joined by “and” are separate entries in the source; they are usually repeats but may differ in a detail not shown here. Equal values may be shown once.

This is an account of results in article PMC10193013, “Nonstructural N- and C-tails of Dbp2 confer the protein full helicase activities” (The Journal of Biological Chemistry, 2023).

In data set [1] the target is T1, Dbp2 (full-length, Dbp2^1-546) (Saccharomyces cerevisiae, UniProt P24783, C168A/C206A/C219A).
T1 construct: full-length 1-546; E. coli C2566H; His6-MBP tag cleaved with TEV, SP ion exchange; the smFRET mutant C141/C373 carries a C-terminal His6 tag
Format: binding. Conditions: labelled protein immobilised via C-terminal His-tag antibody; no RNA; MgCl2 2 mM, pH 7.5.

Data set [2] concerns the target T2, Dbp2 (full-length, Dbp2^1-546) (Saccharomyces cerevisiae, UniProt P24783, R495A/R496A).
T2 construct: full-length 1-546; E. coli C2566H; His6-MBP tag cleaved with TEV, SP ion exchange; the smFRET mutant C141/C373 carries a C-terminal His6 tag
Put plainly: ATPase activity assay kit (free phosphate, […] nm). Format: biochemical. Particulars: 16 bp RNA/DNA duplex 0.75 μM; MgCl2 2 mM, ATP 1.5 mM, pH 7.5, 24 °C; turnover only.

The target in data set [3] is T3, Dbp2 (full-length, Dbp2^1-546) (Saccharomyces cerevisiae, UniProt P24783).
T3 construct: full-length 1-546; E. coli C2566H; His6-MBP tag cleaved with TEV, SP ion exchange; the smFRET mutant C141/C373 carries a C-terminal His6 tag
Put plainly: coupled spectrophotometric ATPase assay. Format: biochemical. Conditions: RNA-dependent: ssRNA R-S22 or RNA/DNA duplex R/D-D16; MgCl2 2 mM, ATP 1.5 mM, pH 7.5, 24 °C; turnover only.

A further data set concerns the target Dbp2 WT (Saccharomyces cerevisiae, UniProt P24783 1-546). Put plainly: fluorescence anisotropy; Anisotropy: 25 mM Tris-HCl pH 7.5, 20 mM NaCl/30 mM KCl, 2 mM MgCl2, 1 mM DTT, 5 nM labelled nucleic acid, 25 C, 5 min; EMSA: 25 mM Tris-HCl pH 7.5, 30 mM KCl. Particulars: protein: recombinant, tags: His6-MBP removed by TEV.
For the next data set, the target named is Dbp2 53-546 (Saccharomyces cerevisiae, UniProt P24783 53-546). The data set is described as above. Particulars: protein: recombinant; tags: His6-MBP removed by TEV; label: 3' FAM; G4.
The target of a further data set is Dbp2 1-530 (Saccharomyces cerevisiae, UniProt P24783 1-530). Described as above. Conditions: protein: recombinant, tags: His6-MBP removed by TEV, label: 3' FAM.
For a further data set, the target named is T4, MBP-Dbp2 497-546 (Saccharomyces cerevisiae, UniProt P24783 497-546).
T4 chain: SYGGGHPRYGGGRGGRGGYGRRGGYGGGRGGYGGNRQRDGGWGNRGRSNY
The description is as above. Conditions: protein: recombinant; tags: MBP fusion; label: 3' FAM; G4.

Another data set deals with Dbp2 118-466 (Saccharomyces cerevisiae, UniProt P24783 118-466). The data set is described as above. Particulars: protein: recombinant, label: 3' FAM.
In a further data set the target is Dbp2 1-524 (Saccharomyces cerevisiae, UniProt P24783 1-524). The description is as above. Conditions: protein: recombinant, tags: His6-MBP removed by TEV, label: 3' FAM.
The target of the next data set is Dbp2 53-496 (Saccharomyces cerevisiae, UniProt P24783 53-496). Described as above. Particulars: protein: recombinant, tags: His6-MBP removed by TEV, label: 3' FAM.
The target in another data set is T5, MBP-Dbp2 1-52 (Saccharomyces cerevisiae, UniProt P24783 1-52).
T5 sequence: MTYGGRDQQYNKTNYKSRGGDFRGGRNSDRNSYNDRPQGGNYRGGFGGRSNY
The data set is described as above. Conditions: protein: recombinant; tags: MBP fusion; label: 3' FAM; G4.

The next data set addresses Dbp2 1-514 (Saccharomyces cerevisiae, UniProt P24783 1-514). The description is as above. Particulars: protein: recombinant, tags: His6-MBP removed by TEV, label: 3' FAM.
The mark [4] stands for this setting: label: 3' FAM on DNA strand, blunt.

Dbp2 WT, sequence (P24783 whole entry): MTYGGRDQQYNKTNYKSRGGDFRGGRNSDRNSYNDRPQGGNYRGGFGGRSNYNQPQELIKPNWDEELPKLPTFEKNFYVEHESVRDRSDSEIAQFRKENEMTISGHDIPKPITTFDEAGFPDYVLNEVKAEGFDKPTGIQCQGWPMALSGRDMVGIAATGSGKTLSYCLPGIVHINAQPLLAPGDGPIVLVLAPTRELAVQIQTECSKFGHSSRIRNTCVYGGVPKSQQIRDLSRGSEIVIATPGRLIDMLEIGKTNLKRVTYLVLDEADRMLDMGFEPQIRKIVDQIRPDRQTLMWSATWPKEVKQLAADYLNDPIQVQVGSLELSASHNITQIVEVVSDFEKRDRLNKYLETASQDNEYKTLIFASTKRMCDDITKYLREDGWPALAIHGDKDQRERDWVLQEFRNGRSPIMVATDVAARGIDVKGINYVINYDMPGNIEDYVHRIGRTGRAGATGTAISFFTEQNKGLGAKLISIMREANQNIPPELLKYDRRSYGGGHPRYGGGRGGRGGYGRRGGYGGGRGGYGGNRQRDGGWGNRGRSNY
Dbp2 118-466, sequence (P24783 118-466): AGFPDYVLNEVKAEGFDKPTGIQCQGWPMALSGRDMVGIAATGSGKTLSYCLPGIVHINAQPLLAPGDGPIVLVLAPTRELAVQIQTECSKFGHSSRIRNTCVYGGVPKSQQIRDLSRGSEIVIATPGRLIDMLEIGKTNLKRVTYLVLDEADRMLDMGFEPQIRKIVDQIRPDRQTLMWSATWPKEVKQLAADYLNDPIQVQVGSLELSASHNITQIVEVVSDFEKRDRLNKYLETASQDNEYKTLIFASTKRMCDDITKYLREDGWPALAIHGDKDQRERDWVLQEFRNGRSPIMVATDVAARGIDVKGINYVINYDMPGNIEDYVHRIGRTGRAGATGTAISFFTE
Dbp2 53-496, sequence (P24783 53-496): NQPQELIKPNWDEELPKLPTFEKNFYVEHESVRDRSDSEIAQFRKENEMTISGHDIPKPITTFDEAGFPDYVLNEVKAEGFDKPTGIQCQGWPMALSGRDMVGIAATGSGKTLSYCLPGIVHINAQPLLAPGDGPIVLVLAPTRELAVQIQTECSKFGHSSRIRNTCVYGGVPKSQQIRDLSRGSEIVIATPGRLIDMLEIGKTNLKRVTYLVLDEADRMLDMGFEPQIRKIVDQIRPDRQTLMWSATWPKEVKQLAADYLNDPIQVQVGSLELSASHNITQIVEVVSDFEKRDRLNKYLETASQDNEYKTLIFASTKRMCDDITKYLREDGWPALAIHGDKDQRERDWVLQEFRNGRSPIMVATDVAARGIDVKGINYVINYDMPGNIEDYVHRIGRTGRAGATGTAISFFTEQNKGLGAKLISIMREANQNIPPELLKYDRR
Dbp2 1-514, sequence (P24783 1-514): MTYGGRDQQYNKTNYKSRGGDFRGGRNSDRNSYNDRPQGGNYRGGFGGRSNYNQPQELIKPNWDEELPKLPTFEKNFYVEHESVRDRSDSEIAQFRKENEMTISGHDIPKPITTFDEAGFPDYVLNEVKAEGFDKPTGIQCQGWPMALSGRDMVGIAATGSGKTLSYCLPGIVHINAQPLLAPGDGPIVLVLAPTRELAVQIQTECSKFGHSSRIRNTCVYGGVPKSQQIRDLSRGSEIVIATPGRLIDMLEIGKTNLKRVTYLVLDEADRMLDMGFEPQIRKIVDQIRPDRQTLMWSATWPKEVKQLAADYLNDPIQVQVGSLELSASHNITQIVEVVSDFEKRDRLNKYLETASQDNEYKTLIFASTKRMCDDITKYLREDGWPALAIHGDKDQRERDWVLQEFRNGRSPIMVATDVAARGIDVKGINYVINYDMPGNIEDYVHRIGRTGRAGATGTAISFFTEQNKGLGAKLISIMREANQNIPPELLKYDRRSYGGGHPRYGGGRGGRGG
T2 sequence (P24783 whole entry R495A/R496A): as the sequence (P24783 whole entry) above, with R495A, R496A counted along it
Dbp2 53-546, sequence (P24783 53-546): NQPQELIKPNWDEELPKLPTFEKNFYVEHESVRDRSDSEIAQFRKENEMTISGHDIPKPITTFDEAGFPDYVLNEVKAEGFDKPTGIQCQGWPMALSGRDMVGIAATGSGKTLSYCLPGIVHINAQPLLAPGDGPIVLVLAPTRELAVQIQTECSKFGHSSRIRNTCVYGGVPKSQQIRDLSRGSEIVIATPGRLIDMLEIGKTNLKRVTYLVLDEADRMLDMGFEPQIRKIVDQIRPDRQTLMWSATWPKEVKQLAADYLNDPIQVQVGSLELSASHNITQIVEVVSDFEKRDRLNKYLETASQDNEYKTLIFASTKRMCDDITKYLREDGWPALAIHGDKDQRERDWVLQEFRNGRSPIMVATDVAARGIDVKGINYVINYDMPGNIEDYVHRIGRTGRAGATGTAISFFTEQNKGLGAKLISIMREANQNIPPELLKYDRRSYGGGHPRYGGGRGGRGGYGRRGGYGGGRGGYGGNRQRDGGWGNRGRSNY
T1 sequence (P24783 whole entry C168A/C206A/C219A): as the sequence (P24783 whole entry) above, with C168A, C206A, C219A counted along it

`Nc1ncnc2c1ncn2[C@@H]1O[C@H](COP(=O)(O)OP(=O)(O)O)[C@@H](O)[C@H]1O` [ADP]: the “single-molecule FRET, Cy3/Cy5 on C141 and C373” value in data set [1] is reported as “The FRET distribution of Dbp2-ADP was similar to that of Dbp2-ADP·AlF4 except for a decrease”.

Regarding `Nc1ncnc2c1ncn2[C@@H]1O[C@H](COP(=O)(O)OP(=O)(O)OP(=O)(O)O)[C@@H](O)[C@H]1O` [ATP], in [2], the “ATPase activity assay kit (free phosphate, 620 nm)” value is on record as “the R495A/R496A double mutant also showed increased ATPase activity in vitro”. Moreover, the “coupled spectrophotometric ATPase assay” value in data set [3] is “The RNA-dependent ATPase activities of Dbp2 were measured using a coupled spectrophotometric ATPase assay”.

B1: R/D-D12 (DNA:RNA)
RNA: CGUCGAGCAGAG
DNA: CTCTGCTCGACG
For the molecule B1, the equilibrium dissociation constant (Kd) with Dbp2 WT (setting [4]) stood at 73.9 ± 3.93 nM.

B2: R/D-D16 (DNA:RNA)
RNA: GAUCGUGACAUCCUUA
DNA: TAAGGATGTCACGATC
On to B2, for which, in the data set with Dbp2 WT (setting [4]), the dissociation constant (Kd) was found to be 40.6 ± 4.65 nM.

B3: D-D12 (dsDNA)
DNA 1: CGTCGAGCAGAG
DNA 2: CTCTGCTCGACG
In the case of B3, the equilibrium dissociation constant (Kd) with Dbp2 WT (label: 3' FAM on strand 2, blunt) was determined as 178 ± 6.2 nM.

Consider ACGGATGTCTAA (ssDNA) [D-S12], for which the Kd with Dbp2 WT (label: 3' FAM) worked out at 105 ± 1.9 nM.

As to CUCUGCUCGACG (ssRNA) [R-S12], the Kd with Dbp2 WT (label: 3' FAM) was determined as 72.1 ± 5.09 nM.

Take GGGUUAGGGUUAGGGUUAGGG (structured_RNA) [R-G4Tel]: the Kd is 18.8 ± 0.56 nM with Dbp2 53-546; 19.2 ± 2.17 nM with Dbp2 1-530 (G4); 36.3 ± 5.1 nM with MBP-Dbp2 497-546; 27.9 ± 2.66 nM with Dbp2 1-524 (G4); 12.2 nM and 12.7 nM with Dbp2 WT (label: 3' FAM, G4); 26 ± 1.5 nM with MBP-Dbp2 1-52. In addition, the Kd in the data set with Dbp2 1-514 (G4) was 63.5 ± 8.45 nM. The binding result with Dbp2 118-466 (G4) and in the data set with Dbp2 53-496 (G4) was “no binding” in each case.

With UUUUUUUUUUCUCUGCUCGACG (ssRNA) [R-S22], the Kd was determined as 33.7 ± 6.63 nM with Dbp2 1-530, 38.8 ± 4.35 nM with Dbp2 1-524, 15.8 ± 0.66 nM in the data set with Dbp2 WT (label: 3' FAM) and 214 ± 18.4 nM with Dbp2 1-514. Also, the binding result with Dbp2 118-466 and in the data set with Dbp2 53-496 was “no binding” throughout.
